This note sets out measurements from patent publication US10836794B2, “Group of peptides for treating female sexual dysfunction” (“IVIX” Ltd., priority 2016, dated 2020).

Non-standard residues stand in square brackets, D forms with d. No end group written: not given here. Hyp = O=C(O)[C@@H]1C[C@@H](O)CN1

One data set relates to female rats. As to the kind of experiment: Efficacy in vivo on preclinical model (Lordoz test): proceptive behavior of ovarioectomized, hormonally stimulated females. The following applies: 100 mcg/rat, progesterone 0.5 mg/rat. How it is done: Investigation of the Efficacy of the Peptides of the Invention as a Means of Stimulating the Genital and Sexual Functions
In order to confirm the efficacy as a means of stimulating the genital and sexual functions, peptides according to the invention were synthesized, in particular the tripeptide Thr-Lys-Hyp, the pentapeptide Thr-Lys-Hyp-Arg-Hyp (SEQ ID NO: 12), and the hexapeptide Thr-Lys-Hyp-Arg-Hyp-Phe (SEQ ID NO: 13), and tests were performed as to the efficacy in vivo on the relevant preclinical model (Lordoz test). Furthermore, the efficacy of the group of peptides Thr-Lys-Pro, Thr-Lys-Pro-Arg-Pro (SEQ ID NO: 6), and Thr-Lys-Pro-Arg-Pro-Phe (SEQ ID NO: 7) was also investigated.
The efficacy of the aforementioned groups of peptides was investigated in a dose of 100 mcg/rat with respect to the sexual behavior of female rats. The sexual behavior was registered over the course of 0-16 days in ovarioectomized, hormonally stimulated females in the case of direct contact with sexually active males and in the case when no such contact was possible. […] The results testify to an increase in sexual motivation under the action of the peptides Thr-Lys-Hyp, Thr-Lys-Hyp-Arg-Hyp (SEQ ID NO: 12), and Thr-Lys-Hyp-Arg-Hyp-Phe (SEQ ID NO: 13).

Data set [1] in a line: Stability of liquid pharmaceutical forms (peptide 0.2 %, benzalkonium chloride 0.01 %, water) during storage; single and total impurities. It is filed as physicochemical. An excerpt:
Investigations of the Stability of Pharmaceutical Forms Containing Peptides Having the Property of Stimulating the Genital and Sexual Functions
This experiment investigated the stability of compositions containing peptides according to the invention. The results of the investigations are illustrated by the example of several peptides according to the invention containing hydroxyproline, in particular Thr-Lys-Hyp […], Thr-Lys-Hyp-Arg-Hyp (SEQ ID NO: 13), Thr-Lys-Hyp-Arg-Hyp-Phe and Thr-Lys-Hyp-Arg-Hyp-Gly-Hyp (SEQ ID NO: 14).
The peptides described in RU2507212 were also obtained, in particular Thr-Lys-Pro, Thr-Lys-Pro-Arg-Pro (SEQ ID NO: 6), Thr-Lys-Pro-Arg-Pro-Phe (SEQ ID NO: 7) and Thr-Lys-Pro-Arg-Pro-Gly-Pro (SEQ ID NO: 1).
From the compounds obtained, a liquid pharmaceutical form (a solution) was prepared, including the peptide and the preservative benzalkonium chloride with the following ratio of components: 0.2 and 0.01 mass %, respectively, water the rest. Samples were placed in storage at two temperature regimes, namely, +4° C. and +25° C. Investigation of the stability of the peptides was carried out after 1, 3, 6, 12, and 24 months of storage. In the investigation of the samples for stability, the quantity of single impurities and the total quantity of impurities were evaluated, testifying to the degradation of the peptides. The pharmaceutical requirements of the company for impurities are: any single impurity, not more than 1.5%; total content of impurities, not more than 3.0%. If the content of impurities exceeded the above indicated values, the pharmaceutical form was deemed to have failed the test for stability.

[2] abbreviates: stored for 1 month at +4° C., solution 0.2 mass % peptide, 0.01 mass % benzalkonium chloride.
[3] abbreviates: stored for 1 month at +25° C., solution 0.2 mass % peptide, 0.01 mass % benzalkonium chloride.
Setting [4] is: stored for 12 months at +25° C.
[5] abbreviates: stored for 24 months at +25° C.

Regarding “Thr-Lys-Pro-Arg-Pro-Phe (TKPRPF; not fully specified; printed as Thr-Lys-Pro-Arg-Pro-Phe) [hexapeptide described in RU2507212, comparison peptide, reference compound]”, the “Number of proceptive behavior acts” value turned out to be 14 ± 4 in the data set with female rats (day 0 of giving the drug), 16 ± 4 in the data set with female rats (day 5 of giving the drug), 19 ± 4 in the data set with female rats (day 11 of giving the drug) and 26 ± 4 with female rats (day 16 of giving the drug). Also, the Single impurities in data set [1] (setting [2]) is 0.054%; in data set [1] (setting [3]) it was 0.11%; in data set [1] (stored for 3 months at +4° C.), 0.09%; in data set [1] (stored for 3 months at +25° C.), 0.9%; in data set [1] (stored for 6 months at +4° C.), 0.5%; in data set [1] (stored for 6 months at +25° C.), 1.9%. Moreover, the values for the Single impurities in data set [1] (stored for 12 months at +4° C.) and in data set [1] (stored for 24 months at +4° C.) were 0.9% and 1.6%, respectively. In addition, the Total impurities worked out at 0.17% in data set [1] (setting [2]); 0.19% in data set [1] (setting [3]); 0.18% in data set [1] (stored for 3 months at +4° C.); 1.1% in data set [1] (stored for 3 months at +25° C.); 1.1% in data set [1] (stored for 6 months at +4° C.); 3.5% in data set [1] (stored for 6 months at +25° C.). The Total impurities in data set [1] (stored for 12 months at +4° C.) is 1.3%; in data set [1] (stored for 24 months at +4° C.), 2,9%.

For Thr-Lys-[Hyp], the “Number of proceptive behavior acts” value worked out at 12 ± 4 in the data set on female rats (day 0 of giving the drug), 25 ± 4 with female rats (day 5 of giving the drug), 24 ± 4 with female rats (day 11 of giving the drug) and 26 ± 4 in the data set with female rats (day 16 of giving the drug). The Single impurities in data set [1] (setting [2]) turned out to be 0.034%; in data set [1] (setting [3]) it was 0.052%; in data set [1] (stored for 3 months at +4° C.), 0.035%; in data set [1] (stored for 3 months at +25° C.) it was 0.052%; in data set [1] (stored for 6 months at +4° C.) it was 0.036%; in data set [1] (stored for 6 months at +25° C.), 0.2%. For the same substance, the Single impurities in data set [1] (stored for 12 months at +4° C.) was 0.09%; in data set [1] (setting [4]), 0.3%; in data set [1] (stored for 24 months at +4° C.), 0.1%; in data set [1] (setting [5]) it was 0.8%. Moreover, the Total impurities in data set [1] (setting [2]) was found to be 0.09%; in data set [1] (setting [3]), 0.11%; in data set [1] (stored for 3 months at +4° C.), 0.11%; in data set [1] (stored for 3 months at +25° C.) it was 0.9%; in data set [1] (stored for 6 months at +4° C.), 0.2%; in data set [1] (stored for 6 months at +25° C.), 1%. In addition, the Total impurities in data set [1] (stored for 12 months at +4° C.) is reported as 0.3%; in data set [1] (setting [4]) it was 1.2%; in data set [1] (stored for 24 months at +4° C.) it was 0.9%; in data set [1] (setting [5]), 1.8%.
